Data published in US20240026407A1, “MODIFICATION OF SAPONINS” (GLAXOSMITHKLINE BIOLOGICALS SA, priority 2020, published 2024).

Columns and labels:
Assay type in all cases: biochemical, Quillaja saponaria
[1] = Experiment 5-2: screening of additional glucosidases for deglycosylation with QS-18 in crude bark extract (80%) at pH 6 and 35 deg C; settings: CBE 80%, pH 6, 35 deg C, 18 hours; UV HPLC
Procedure, shortened: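 Clarified glucosidase lysate (prepared at pH 6) was incubated with pH 6-adjusted crude bark extract at 35 deg C with shaking for 18 hours. Reactions were quenched with MeCN containing 2% AcOH and hexanophenone, then analysed by UV HPLC.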

[2] = Experiment 5-3: screening of additional glucosidases for deglycosylation with QS-18 in treated bark extract (80%) at pH 6 and 35 deg C; settings: TBE 80% (QS-21 approx. 4 g/L), pH 6, 35 deg C; UV HPLC
Method: Experiment 5-1 was repeated, replacing CBE with Treated Bark Extract (TBE) at pH 6. TBE was prepared from CBE by PVPP treatment and concentration, to provide TBE with a QS-21 concentration of approximately 4 g/L. TBE was adjusted to pH 6 by dropwise addition of 2M NaOH with stirring.

[3] = Experiment 5-1: screening of additional glucosidases for deglycosylation with purified QS-18 (0.04 mg/ml) at pH 7.5 and 30 deg C; settings: pH 7.5, 30 degrees C, 18 hours, LCMS/MS
Method: The 94 additional genes, together with positive control (DNA encoding SEQ ID No. 262) and negative control, were transformed, expressed, lysed and reacted in the same manner as described above for Experiment 4-1, except the reaction was incubated at 30 degrees C. for 18 hours.
Samples were analysed by LCMS/MS according to the procedure in Experiment 4-1.

Molecule	Experiment 5-2 % conv [1] [%]	Experiment 5-3 % conv [2] [%]	Experiment 5-1 % conv [3] [%]
840 (protein, listed as Hungatella hathewayi) MNKKIKEILNSLTLEEKASLCSGVGLWQTRPLEDKGIPEIWMADGSNGVRIMKPVNQERKQDTSDFLKVTDLTQNSPTITNQYEAVCYPSGASLASTWDTELIEEMGEALGDECRYFKVNLLLAPGINIKRSPLGGRGYEYYSEDPYLTGKVAESFIKGVQKTGTGTSIKHFAANNAETLRINMSSDVDERALREIYLAPFEIGVKNAKPWTVMSSYNKVNGVQMAENRELLTDILRDEWGFNGVVVSDWGGVKDRIKALEAGNDLDMPENQRSNQSVVDAVRRGILSEAVLDQSVERILELVFKAKEQERFTDDMDFESHRNLSRKVAEESVVLLKNEKGLLPITKEKYKKVAVIGAFAREPRYQGGGCTLVNPIRISRPYEEMEKLAGKNIELTYAKGYELKDETSDELIHEAEEAAREADIAVIFGGLWVAYDREGFDRKHLEIDSSHIRLIEAVSRVQKRVVVVLSNGDAVVMSPWLDHVGAVVEQFLVGETVGEALARVLFGEVNPSGKLPVTFPKRLEDTSAYPYFPGECSHHVYGEGIFVGYRYFDKKKIEPLFPFGYGISYTTFQYSAIRADRSQMKDTDTVTVSVDVTNTGCVKGKEIVQIYVSDEKSRLKRPEKELKAFGKVELEPGETKTLTFTLGYRDFAYYDPEASDWVVEEGIFHIHAAANAGDIRQSIPVEVTEAKKKFRRLYLDSQHTAVFEHPMAKKMYLDFLVETGVIAADRVEAMAPLLKGNYMGIYNVVTSLLGGNVTKEEMQAVLDRINEVCKDNRPAE	<0.5	<0.5	3.5
854 (protein, listed as Corynespora cassiicola) MAQESGTVHDDESLQALVGQMTLEEKIKMLSAKNVWETPEIDRLGIPSLKVTDGPNGARGGSFFDGTTAACFPSCVSLAATFNRSLSRQVGKALEQEAITKGAYVLLGPTVCCHRSPLGGRNFEAFSEDPYLSGALASEYVKGLQEERVAATVKHFLANEQDTRRFSVNEKISERALREIYLRPFEMVAKEADPWCFMSSYPKINGAHVDAQSKFLVDILRKEWGYKGLIMSDWGATSTPESVRYGLDLETPGPPRWRTTDAVTKCLADGHIEESDIDARVLATLRLLKKVGKFDDRKTTPPEQAIDRPEHRALIRKAGGEGIVLLKNNGNLLPIDTRKTKKIALLGPLAKYAAAHGGGSASLNCHYKISPYDAFVARLGGDVEITHSKGAHIFRVYPDLEASCTNARGNSGFLAEYFMSSSTTEKPFWTEEFPRGSVTTLMNTKVIGCKTLKFTTTYQPPVSGSHYLSFSGLGPSQLFINDMLVAEQKEPTKDAMGFLLGVQEEVRIQYPFSSTQSYAISMVTHPSPFSNAELYLMENQCAIHIGFIAQEEIEHDVLSEAVDLASSADLAIVFVGNTIQWETEGQDLETMTLPADGSQDNLISQVVAANPNTIVVNTTGVPVELPWVDSVPALLQAWYAGQECGNAILDVLLGEVSPSGKLPISWPKKYEHTGCYGHFGLDSFESREVEYVEGVYVGYRWFDQWWGQDKEVRFPFGFGLSYTEFDISDARISGAISGDESSQVKVSANIRNIGDRFGAETVQIYVQPPALADLGRPLKDLVGFVKVELKPGETRDITVCFQKDNVSFWNEKANQWRVCRGTYNVLIATSSDPKDAKQALRFEVEEDLDFDP	<0.5	<0.5	3.7
850 (protein, listed as Bifidobacterium scardovii) MSESTYPSVKDLTLEEKASLTSGGDVWHLQGVESKGIPGYMITDGPHGLRKSLASSAGETDLDASVPATCFPPAAGLSSSWNPELIRKVGEAMGEECIQEKVAVILGPGVNIKRNPLGGRCFEYWSEDPYLAGHEAIGIVEGVQSKGVGTSLKHFAANNQETDRLRISANIGPRALREIYLPAFEHIVKTAQPWTVMCSYNRINGVYSAQNRWLLTDVLRGEWGFEGIVMSDWGADHDRVASLNAGLNLEMPPSYTDDEIVHAARDGRIAPAQLDAMAQGMIDLVNRTRAAMSVDDYRFDVDAHDEVAHQAAVESIVMLKNDGAILPLDADAASGQKIAVIGEFARTPRYQGGGSSHITPTRMTSFLDALDERGIAAEFAPGFTLDLEPADPALEAQAVDAAKRADTVLMFLGLPEAAESEGFDRETLDIPAKQIALLDAVAAANDQVVVVLSNGSAVSVAPWAGRAKGILESWLLGQAGGPALADVIFGRTSPSGKLAQTIPMDINDDPSMVNWPGEEGHVDYGEGVFVGYRYYDTYGKAVGYPFGYGLSYATFEISKAAVARTGANAAVVTATVTNTSGVDGAETVQVYVAPGKADVARPRHELKGFVKVFLKAGESADVAIDLDERAFAYWSERYDDWHIESGEYAVEIGTSSRDIAATVTVALEGDGKTQPLTAWSTYGEWSSDPIGAKVMAAVAAAGEAGELPKLPDNAMMNMFLMAMPINSLPTLMSEGGKSITRFMLDEYARLTK	<0.5	<0.5	95.3
819 (protein, Propionibacterium australiense) MTTVHPDDYADRASELVAAMTLDEKASLTSGADFWNLKTVERLGLGAVMVTDGPHGLRKATNDAEIGIGQAVPATCFPTAAALGSTWDDELLEQVGAALGEEARAAGVAVVLGPGVNMKRSPLCGRNFEYFSEDPLVAGRAGAAMVRGVQSQGVGTSVKHFAANSQETDRMRIDARIGERALREIYLPAFERIVTQTRPWTVMCAYNKVNGTYASQHPWLLTTVLREDWGFGGLVVSDWGAVDQRVPGLAAGLDLEMPASGGVTDEQIARAVRTGELDEAVLDRAVQRIVALILAAQAVEPGTGFDTDAHHELARKAAAAGAVLLRNEPVDGSPVLPLDARDITGQAPLVVIGEFARTPRYQGAGSSQINPTRLDSALDALREQLGGAVRFEPGYRLAEATGMPGQELTDDELADRAVEAARGATVVLFAGLPAAVESEGYDRDDIELPNAQTTLIERVSAVAARTTVVLSNGSVVSVASWREKVDALLECWLGGQGGGSATADVLLGRSCPGGHLAESIPLALSDVPAQLNFPGSHSRVDHGEGVFVGYRGLDTMGREVAYPFGFGLTYTTFELTGVQATPVVTVADGTGLDETVAVVRGTLTNTGQRTGAQVVQLYLGRHEASRVARAPRELRGYEKITLAPGQSAPFEFALSRRDLSYWDEGTGCWQVEPGAYRAWVGFSSRDAAAVLPLQVTAPEPASPLGKDSTYAEWMAHPVGGPLLRTDARAFVDDMASSGAYELFAAMPLERLVRLPGSLLAPEDYLTLLDRAQAGQD	<0.5	<0.5	3.2
876 (protein, listed as Pyrenochaeta sp.) MQLSEMALTGVEVDATDVEYILKQMSLDEKIQMLAAKNVWETPEIERVGIPSLKVTDGPNGARGGSFFDGTTAACFPASVSLAATFSRELSRQIGTALGQEAITKGAYAVLGPTVCCHRSPLGGRNFEAFSEDPYLSGTLASEYVQGLQQERVAATVKHFLANEQDTRRFSINQTISERALREIYLKPFEMVVKEAKPWCFMSSYPKINGKHVDAQSLFLEDILRKEWSYDGLVMSDWGATSTVESVSYGLDLEMPGPPRFRTPEAVHQALLKGTVSESDIDARVLTTLKLLERVGKFADRRDTPKETAVDRPEHRELIRKAGSEGIVLLKNDRGILPIDVTKTKKVALLGPLAKYAAAHGGGSASLNCHYKVSPFDAFKDRLSEDVEIAHSKGAHIFRVYPDLEEGCLNARQRPGFLAEYFMTSRVTEEPFLVEQFPRGSFTTLMNTRATGCKTVRFTTTYSPVTPGAHYLSFSGLGPSKFYINDELVAHQTESTKDAMGFLLGVQEEIRTQFVFEVGKEYNIVVETHPSPTSNAELYLLDNQCSVHLGLISQEEMEQDVLAEAVSLAKDADLAIVFVGNTTQWETEGQDLESMSLPANGSQDDLIVRVAAANPNTIVVNTTGVPVELPWIDSVPAFLQAWYAGQETGNAILDVLLGTTCPSGKLPISWPKKYEHTGCFGNFGLDSFESRQVDYVEGVFVGYRWFDNLWGGEKEVRFPFGFGLSYTTFEITGTSIKGSLSNDAHHVLRVSIKVKNVGKCLGAEIVQVYLKPPVTEGLERPQKTLAGFEKIELRVGEEREVHIAIGKENAAFWDENLSKWRVSTGVYEVLVATSSHPRDCRAVLETVVEDEFIFKA	<0.5	<0.5	3.1
817 (protein, listed as Pseudonocardia sp.) MAHVDEELLGTLIATLDLERKVRLLTGADFWSTPAEPAIGLRRMVLSDGPSGVRGESFDEREPSLSLPSSSALGATWDPAAARRYGSALGAEARRQHADAVLGPTINLHRTPYGGRHFEALSEDPLLTAELAAAYVEGLQAHGVAATPKHYVANDAETERFSVDNRVGDRALRELYLAAFEPVVTRAGAWAVMSAYNAVNGTTMSENPLLAEPLTGEWGFDGLVMSDWGGARSTEASARAEQHLVMPGPVSAWGARLVEAVRDGRVGEDVIDGKVRRLLRLAARVGALDGVPPQVTEPPPAEDGAAVARELAAAGSVLVRNTRADGAAELPWDHAVPGSVAVLGHNAALARTQGGGSATVRPAAVVSPLDGLRAALGADRVRYRLGAQVAEGVQPFDPASITNPVTGGSGLRAVFRDVGGAALRTEDRLSSSLIWMGAEIPEGTDHVEIALRWDAPAGAHRLGAAAVGHVVLVAGGTTVLDADGVLTGDEGPGAAIFEAPSVTAGVTTDGPVDLVLRFRPSGQEAGMPLVAVTVGEETVVDDPDAEIAAAAALAAGTDVAVVVVGTNDRIESEGFDRSTLALPGRQDDLVRAVAAANPRTVVVVNSGAPVLLPWRDEVAAILLGWFGGEQFGEAVADVLLGAAEPGGRLPTTWPGTGRERSVLSGVPSDGVLRYDEGVHAGHRNWLRHGETPAYPFGHGLGYTTWTLDGMSVGRWSADGIDVTVTLTNIGDRPGRQVVQAYLSRDRSDVERPARWLAGWAVVDAAPGTTTVTVPVSRRAFRHRTGTGWATEPGTWTLHLGFSVTDTPLAAEVTTT	<0.5	<0.5	3.5
